# Measurements as given in publication PMC4332406.
# Biological target: Human α-defensin 5 (human)
# Experiment: SPR
substance,measurement,value
Human α-defensin 5 (peptide),molar ratio,1
same,stoichiometry N,2
